B1: Hairpin Ribozyme (parent)
chain: GUCCUCUUUCACGUGCGCGUGAAAGAGAGAAGUGAACCAGAGAAACACACGUUGUGGUAUAUUACCUGGUA

Variants of: B1
Experiment: self-cleavage, relative activity (ratio to wild type); higher = more cleavage; co-transcriptional

Row | Variant | self-cleavage
1 | GUCCUCUUUCACGUGCGCGUAAAAGAGAGAAGUGAACCAGAGAAACACACGUUGUGGUAUAUUACCUGGUC [G21A A71C] | 1.23
2 | GUCCUCUUUCACGUGCCCGUGAAAGAGAGAAGUGAACCAGAGAAACUCACGUUGUGGUAUAUUACCUGGUA [G17C A47U] | 0.222
3 | GUCCUCGUUCACGUGGGCGUGAAAGAGAGAAGUGAACCAGAGAAACACACGUUGUGGUAUAUUACCUGGUA [U7G C16G] | 0.689
4 | GUCCUCUUUCACGUGCGCGUGAAAGAGAGAAGUGAACCAGAGAAACACACGUUGUGAUAUAUUACCUGAUA [G57A G69A] | 0.122
5 | GUCCUCUUUCACGUGCGCGUGAAAGAGAGAAGUGAACAAGAGAAACACACGUUGUGGUACAUUACCUGGUA [C38A U60C] | 0.251
6 | GUCCUCUUUCACGUGAGCGUGAAAGAGAGAAGUGAACCAGAGAAACACACGUUGUUGUAUAUUACCUGGUA [C16A G56U] | 0.151
7 | GUCCUCUUUCACGUGCGCGAGAAAGAGAGAAGUGAACCAGAGAAACACACGUUGUGGUAUAGUACCUGGUA [U20A U62G] | 0.195
8 | GUCCUCUUUCACGUGCGCGUGAAGGAGAGAAGUGAACCAGAGAAACACACGUUGUGGAAUAUUACCUGGUA [A24G U58A] | 0.628
9 | GUCCUAUUUCACGUGCGCGUGAAAGAGAGAACUGAACCAGAGAAACACACGUUGUGGUAUAUUACCUGGUA [C6A G32C] | 0.133
10 | GUCCUCCUUCACGUGCGUGUGAAAGAGAGAAGUGAACCAGAGAAACACACGUUGUGGUAUAUUACCUGGUA [U7C C18U] | 1.06
11 | GUCCUCUUUCACGUGCGAGUGAAAGAGAGAAGUGAACCAGAGAAACACACGAUGUGGUAUAUUACCUGGUA [C18A U52A] | 1.07
12 | GUCCUCUUUGACGUGCGCGUGAAAGAGAGAAGUGAACCAGAGAAACACACGUUGUGGUCUAUUACCUGGUA [C10G A59C] | 0.127
13 | GUCCUCUUUCACGUGCGCGUGAAAGAGAGAAGUGAACCAGAGAAACACACGGUGCGGUAUAUUACCUGGUA [U52G U55C] | 0.193
14 | GUCCUCUUUCACGAGCGCGUGAAAGAGAGAAGUGAACCAGAGAAACACACGUUGUGGUAUAUUACGUGGUA [U14A C66G] | 0.143
15 | GUCCUCUUUCACGUGCUCGUGAAAGAGAGAAGUGAACCAGAGAAACACAGGUUGUGGUAUAUUACCUGGUA [G17U C50G] | 0.192
16 | GUCCUCAUUCACGUGCGCGUGAAAGAGAGAACUGAACCAGAGAAACACACGUUGUGGUAUAUUACCUGGUA [U7A G32C] | 0.143
17 | GUCCUCUUUCACGUGCGCGUGAAAGAGAGAAGUGAACCAGAGAAACACACCUUGUGGUAUAUUAACUGGUA [G51C C65A] | 0.857
18 | GUCCUCUUUCACGGGCGCGUGAAAGAGAGAAGUGAACCAGAGAAACACACGUUGUGGUAUGUUACCUGGUA [U14G A61G] | 0.0735
19 | GUCCUCUUUCACGUGCGCCUGAAAGAGAGAAGUGAACCAGAGAAACAUACGUUGUGGUAUAUUACCUGGUA [G19C C48U] | 0.132

Row | Variant | self-cleavage
20 | GUCCUCUUUCACGUGCGCGUGAAAGUGAGAAGUGAACCAGAGAAACACACGUUGAGGUAUAUUACCUGGUA [A26U U55A] | 0.082
21 | GUCCUCUUUCACGUGCACGUGAAAGAGAGAAGUGAACCAGAGAAACACACGUUGUGGUAUAAUACCUGGUA [G17A U62A] | 0.159
22 | GUCCUCUUUCACGUGCGCGUGAAAGAGAGAAGUGAACCAGAGAAACACACGUUGUGGUAUAUUAUCAGGUA [C65U U67A] | 0.309
23 | GUCCUCUUUCACGUGCGCGUGAAGGAGAGAAGUGAACCAGAGAAACACACGUUGUGGUAUAUUACCUGCUA [A24G G69C] | 0.238
24 | GUCCUCUCUCACGUGCGCGUGAAAGAGAGAAGUGCACCAGAGAAACACACGUUGUGGUAUAUUACCUGGUA [U8C A35C] | 0.876
25 | GUCCUCUUGCACGUGCGCGUCAAAGAGAGAAGUGAACCAGAGAAACACACGUUGUGGUAUAUUACCUGGUA [U9G G21C] | 0.736
26 | GUCCUCUUUUACGUGCGCGUGAAAGAGAGAAGUGAACCAGAGAAACACACGUAGUGGUAUAUUACCUGGUA [C10U U53A] | 0.733
27 | GUCAUCUUUCACGUGCGCGUGAAAGAGAGAAUUGAACCAGAGAAACACACGUUGUGGUAUAUUACCUGGUA [C4A G32U] | 0.168
28 | GUCCUCUUUCACGGGCGCGUGAAAGAGAGAAGUGAACCAGAGAAACACACGUUGUGGUAUAUUACCUGCUA [U14G G69C] | 0.238
29 | GUCCUCUUUCACGUGCGCGUGAAAGAGAGAAGUGAACCAGAGAAACACAGGUUGUGGUAUAUUGCCUGGUA [C50G A64G] | 0.164
30 | GUCCUCUUUCACGUGCGCGUGAAAGAGAGAAGUGAACCAGACAAACACACGUUGUGGUUUAUUACCUGGUA [G42C A59U] | 0.156
31 | GUCCUCUUUCACGUGCGCGUGAAAGAGAGAAGUGAAUCAGAGAAACACACGUUGUGCUAUAUUACCUGGUA [C37U G57C] | 0.156
32 | GUCCUCUUUCACGUGGGCGUGAAAGAGAGAAGUGAACCAGAGAAACACACGUGGUGGUAUAUUACCUGGUA [C16G U53G] | 0.713
33 | GUCCUCUUUCACGUGCACGUGAAAGAGAGAAGUGAACCAGAGAAACACACGUUGUGGUAAAUUACCUGGUA [G17A U60A] | 1.02
34 | GUCCUCUUUCACGUGCGCGUGAGAGAGAGAAGUGAACCAGAGAAACACACGUUGUGGCAUAUUACCUGGUA [A23G U58C] | 0.847
35 | GUCCUCUUUCACGUGCGCGUGAAAGAGAGAAGUGAACCAGAGAACCACACGUGGUGGUAUAUUACCUGGUA [A45C U53G] | 0.138
36 | GUCCUCUUUCACCUGCGCGUGAAAGAGAGAAGUGAACCAGAGAAACACACUUUGUGGUAUAUUACCUGGUA [G13C G51U] | 0.61
37 | GUCCUCUUACACGUGCGCGUGAAAGACAGAAGUGAACCAGAGAAACACACGUUGUGGUAUAUUACCUGGUA [U9A G27C] | 0.239
38 | GUCCUCUUUCACCUGCGCGUGAAAGAGAGAAGUGAACCAGAGAAACACACGUUGUGUUAUAUUACCUGGUA [G13C G57U] | 0.164

From the RNAGym collection of RNA variant scans (doi:10.7554/elife.80360)
